{"source": "paper PMC10811509", "about": "“APP‐C31: An Intracellular Promoter of Both Metal‐Free and Metal‐Bound Amyloid‐β40 Aggregation and Toxicity in Alzheimer's Disease” (Advanced Science, 2023)", "binders": {"B1": {"name": "APP‐C31 (APP_(665–695)) (peptide)", "peptide": "AAVTPEERHLSKMQQNGYENPTYKFFEQMQN", "notes": "C-terminal 31 residues of amyloid precursor protein (APP), produced by caspase cleavage; residues 665-695; source: bought: AnaSpec"}}, "conditions_in_all_cases": "both partners purified", "key": {"[1]": {"biological_target": "T1, amyloid‐β40 (Aβ40)", "T1 construct": "Amyloid-beta 40, cut from amyloid precursor protein (APP) by beta- and gamma-secretases; numbers count on: the Aβ peptide (Asp1 to Val40); Unlabelled peptide; Metal-treated samples (CuCl2, ZnCl2) are told apart by the assay; also called metal-free Aβ40; Cu(II)–Aβ40 and Zn(II)–Aβ40 when treated with CuCl2 or ZnCl2; source: bought: Peptide Institute (HPLC-purified) or Anaspec", "T1 sequence (peptide, as listed by the source)": "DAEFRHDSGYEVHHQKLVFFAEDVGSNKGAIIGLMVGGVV", "test": "ITC; APP-C31 600 µM in the syringe, Aβ40 30 µM in the cell; 20 mM HEPES, pH 7.4; 10 °C; one set of sites model"}, "[2]": {"biological_target": "T2, uniformly ^15N‐labeled Aβ40 (uniformly 15N-labeled)", "T2 construct": "Amyloid-beta 40, cut from amyloid precursor protein (APP); numbers count on: the Aβ peptide (Asp1 to Val40); also called ^15N‐labeled Aβ40 monomer; source: bought: rPeptide Inc", "T2 sequence (peptide, as listed by the source)": "as above", "test": "NMR titration; 2D 1H–15N HSQC (700 MHz); 15N-labeled Aβ40 40 µM, CuCl2 20 µM, APP-C31 200 µM; 20 mM HEPES, pH 7.4; 10 °C"}, "[3]": {"biological_target": "T1, amyloid‐β40 (Aβ40)", "test": "native MS; ESI–MS; APP-C31 100 µM incubated with Aβ40 100 µM, 20 mM ammonium acetate, pH 7.3, 37 °C, 2 h, no agitation; diluted tenfold before injection; no metal"}}}
{"binder": "B1", "values": [{"measurement": "Kd", "setting": "[1]", "result": "150 ± 11.4", "unit": "µM"}, {"measurement": "dH", "setting": "[1]", "result": "-1.5 ± 0.3", "unit": "kcal/mol"}, {"measurement": "binding result", "setting": "[2]", "result": "binds"}, {"measurement": "stoichiometry N", "setting": "[3]", "result": 1}]}
